Measured values: paper PMC3519778

Biological target: CD26 on human monocyte-derived immature dendritic cells (human (endogenous in monocyte-derived iDCs)) (UniProt P27487)
UniProt P27487, sequence (P27487 whole entry): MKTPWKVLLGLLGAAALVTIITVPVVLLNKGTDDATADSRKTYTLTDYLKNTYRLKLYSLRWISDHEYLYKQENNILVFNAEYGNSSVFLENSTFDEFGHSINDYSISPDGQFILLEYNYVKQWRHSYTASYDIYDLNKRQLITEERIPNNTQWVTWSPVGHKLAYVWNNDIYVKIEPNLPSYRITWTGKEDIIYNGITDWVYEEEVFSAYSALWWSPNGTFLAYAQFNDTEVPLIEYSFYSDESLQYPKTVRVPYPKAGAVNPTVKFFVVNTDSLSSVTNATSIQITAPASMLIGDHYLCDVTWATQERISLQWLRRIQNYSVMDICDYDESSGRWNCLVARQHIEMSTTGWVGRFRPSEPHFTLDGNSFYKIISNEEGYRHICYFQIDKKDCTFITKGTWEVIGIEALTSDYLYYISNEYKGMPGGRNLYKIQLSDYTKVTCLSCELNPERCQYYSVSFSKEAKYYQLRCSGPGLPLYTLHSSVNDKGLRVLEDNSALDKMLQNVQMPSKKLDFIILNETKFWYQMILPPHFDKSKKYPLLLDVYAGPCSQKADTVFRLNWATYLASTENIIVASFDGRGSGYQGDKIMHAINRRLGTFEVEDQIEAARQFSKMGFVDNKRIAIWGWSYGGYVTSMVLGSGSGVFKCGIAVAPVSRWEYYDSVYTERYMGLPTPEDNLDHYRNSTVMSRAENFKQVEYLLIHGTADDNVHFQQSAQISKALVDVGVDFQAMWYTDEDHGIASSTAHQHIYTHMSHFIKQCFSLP

B1: Adenosine deaminase (ADA, EC 3.5.4.4) from calf intestine (enzyme)
chain: MAQTPAFNKPKVELHVHLDGAIKPETILYYGRKRGIALPADTPEELQNIIGMDKPLSLPEFLAKFDYYMPAIAGCREAVKRIAYEFVEMKAKDGVVYVEVRYSPHLLANSKVEPIPWNQAEGDLTPDEVVSLVNQGLQEGERDFGVKVRSILCCMRHQPSWSSEVVELCKKYREQTVVAIDLAGDETIEGSSLFPGHVKAYAEAVKSGVHRTVHAGEVGSANVVKEAVDTLKTERLGHGYHTLEDATLYNRLRQENMHFEVCPWSSYLTGAWKPDTEHPVVRFKNDQVNYSLNTDDPLIFKSTLDTDYQMTKNEMGFTEEEFKRLNINAAKSSFLPEDEKKELLDLLYKAYGMPSPASAEQCL
ADA-mediated upregulation of CD80 on iDCs (flow cytometry, 48 h, 2 uM ADA) after pre-incubation of the cells with the anti-CD26 mAb TA5.9 (directed against the ADA-binding epitope on CD26): 0.64 in-fold | ADA-mediated upregulation of CD83 on iDCs (flow cytometry, 48 h, 2 uM ADA) after pre-incubation of the cells with the anti-CD26 mAb TA5.9 (directed against the ADA-binding epitope on CD26): 0.46 in-fold
